Laboratory results from the supplement of paper PMC9942255.

Tested on: Bacillus subtilis DB104 (SP-AmyQ fusion secretion)
Assay: AmyQ secretion efficiency, weighted average sort bin (1 = best secretion, 10 = worst) (bin number (weighted average, 1-10)); higher = lower secretion efficiency
Procedure, shortened: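 The secretion score gives the average bin number weighted by read frequency and normalised to beads per bin, with low-abundance sequences excluded. Bins were 10 equally populated green/red fluorescence ratio fractions of occupied ~65 nL alginate beads, sorted by large-particle flow cytometry. The beads held fluorescein-starch and about 0.3 cells each of an amyE-integrated B. subtilis DB104 library fusing designed signal peptides to mature AmyQ, and they were grown about 13 h at room temperature and stained with nile red before sorting and Illumina sequencing.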

Row | Sequence | AmyQ secretion efficiency
1 | MRSKKLWISLLFALTLIKKKAFSNMSAQAAGK | 8.69
2 | MRSKKLWISLLFALTLIRKRKKRNMSAQAAGK | 9.84
3 | MRSKKLWISLLFALTLITFTMAFSNMSAQAAGK | 3.27
4 | MRSKKLWISLLFALTLITLLVAFTMAFSNMSAQAAGK | 7.19
5 | MRSKKTWISLLFALTLIFTMAFSNMSAQAAGK | 3.25
6 | MRSYIKFNFIISVLTMCFLGLILFVPTALADNS | 1.36
7 | MRSYIKGTGRCKLGLILFVPTALADNS | 6.59
8 | MRSYIKSKKRCKQQLILFVPTALADNS | 7.44
9 | MRSYIKTFNVLTMCFLGLILFVPTALADNS | 2.59
10 | MRSYIKVKKKCRLGLILFVPTALADNS | 6.78
11 | MRSYIKVKKMCFLGLILFVPTALADNS | 3.9
12 | MRSYIKVLTMCFLGLILFVEEDALADNS | 2.58
13 | MRSYIKVLTMCFLGLILFVFSSLPTALADNS | 2.22
14 | MRSYIKVLTMCFLGLILFVFTALADNS | 7.29
15 | MRSYIKVLTMCFLGLILFVKRRKRRALADNS | 7.48
16 | MRSYIKVLTMCFLGLILFVPALADNS | 6.75
17 | MRSYIKVLTMCFLGLILFVPTALAAEE | 3.07
18 | MRSYIKVLTMCFLGLILFVPTALAAND | 2.11
19 | MRSYIKVLTMCFLGLILFVPTALAANR | 2.08
20 | MRSYIKVLTMCFLGLILFVPTALAARK | 5.25
21 | MRSYIKVLTMCFLGLILFVPTALAEEE | 2.15
22 | MRSYIKVLTMCFLGLILFVPTALCDNS | 3.89
23 | MRSYIKVLTMCFLGLILFVPTALFDNS | 7.14
24 | MRSYIKVLTMCFLGLILFVPTALGDNS | 2.8
25 | MRSYIKVLTMCFLGLILFVPTALKDNS | 7.49
26 | MRSYIKVLTMCFLGLILFVPTALLDNS | 5.28

Row | Sequence | AmyQ secretion efficiency
27 | MRSYIKVLTMCFLGLILFVPTALMDNS | 6.46
28 | MRSYIKVLTMCFLGLILFVPTALNDNS | 6.3
29 | MRSYIKVLTMCFLGLILFVPTALPDNS | 7.02
30 | MRSYIKVLTMCFLGLILFVPTALQDNS | 6.11
31 | MRSYIKVLTMCFLGLILFVPTALTDNS | 5.81
32 | MRSYIKVLTMCFLGLILFVPTALVDNS | 5.38
33 | MRSYIKVLTMCFLGLILFVPTALYDNS | 8.55
34 | MRSYIKVLTMCFLGLILFVPTCLADNS | 2.04
35 | MRSYIKVLTMCFLGLILFVPTFLADNS | 5.95
36 | MRSYIKVLTMCFLGLILFVPTGLADNS | 1.86
37 | MRSYIKVLTMCFLGLILFVPTGVFGSSPPFAAALADNS | 3.3
38 | MRSYIKVLTMCFLGLILFVPTHLADNS | 6.38
39 | MRSYIKVLTMCFLGLILFVPTILADNS | 2.6
40 | MRSYIKVLTMCFLGLILFVPTKDEPALADNS | 2.48
41 | MRSYIKVLTMCFLGLILFVPTKLADNS | 5.85
42 | MRSYIKVLTMCFLGLILFVPTLLADNS | 4.36
43 | MRSYIKVLTMCFLGLILFVPTMLADNS | 3.1
44 | MRSYIKVLTMCFLGLILFVPTNLADNS | 3.6
45 | MRSYIKVLTMCFLGLILFVPTPLADNS | 5.93
46 | MRSYIKVLTMCFLGLILFVPTQLADNS | 5.96
47 | MRSYIKVLTMCFLGLILFVPTQTALADNS | 2.3
48 | MRSYIKVLTMCFLGLILFVPTRLADNS | 6.28
49 | MRSYIKVLTMCFLGLILFVPTSLADNS | 2.69
50 | MRSYIKVLTMCFLGLILFVPTTAPSPGFALADNS | 4.85
51 | MRSYIKVLTMCFLGLILFVPTTLADNS | 1.67
52 | MRSYIKVLTMCFLGLILFVPTTVVALADNS | 2.15

Row | Sequence | AmyQ secretion efficiency
53 | MRSYIKVLTMCFLGLILFVPTVLADNS | 2.19
54 | MRSYIKVLTMCFLGLILFVPTYLADNS | 7.74
55 | MRSYIKVLTMCFLGLILFVRRKALADNS | 6.5
56 | MRSYIKVLTMCFLGLILFVVIATVSAIPTALADNS | 2.02
57 | MRSYIKVLTMCFLGLPTALADNS | 3.96
58 | MRSYIKVRRRCRRRLILFVPTALADNS | 6.04
59 | MRYFSKAVFVIMISFLIATVNVNTAHAAID | 5.65
60 | MSFFTKNRLISSVLSTVVISSLLFPGAAGASSK | 1.61
61 | MSFIIIPMTLALGAALTIAPLSFASAEEN | 6.39
62 | MSFKRVITCVMAASLTLGSLLPAGYASAKED | 2.84
63 | MSFVMNIIIALVTILMLSVTSLFALQPSAKAAEH | 2.71
64 | MSGGGILALFVLSLGLLSFMVTPVSAASK | 2.53
65 | MSGSRVITCVMAASLTLGSLLPAGYASAKED | 3.72
66 | MSGSSFVLIVCIIFTSALFPTFSSVTAAQG | 1.04
67 | MSGSSVMMLALTAAAGLGLTALHSAPAAKAAPL | 2.7
68 | MSGSTLIILALFVLSLGLLSFMVTPVSAASK | 4.39
69 | MSGTCSIVCLWILVLLLSCLSGKSAYAATS | 3.6
70 | MSGTIFFGPIILAFILFAGAIAIPS | 6.8
71 | MSGTTSIILFSTLALAAGMTAAAAGGAGTIHAQQP | 3.5
72 | MSIWIVLFLVLIAAAISIFVYVSTGSEK | 6.85
73 | MSKAAAVLLSLGLVFGFSYGAGHVAEAKTK | 2.88
74 | MSKGIIRFLLVSFVLFFALSTGITGVQAAPA | 2.19
75 | MSKKTWMVGLLAGCLAAGGFSYNAFATEN | 4.68
76 | MSKLIMALVILGALGTSYISADSS | 7.07
77 | MSKLLAAGIIGLLTVSIASPSFAAEK | 3.64
78 | MSKLVLCVSILAVILSGVALTQLS | 6.37

Row | Sequence | AmyQ secretion efficiency
79 | MSKRLIAPMLLSAASLAFFAMSGSAQAAAY | 3.13
80 | MSKTGRYTKAVIVIAALITFNVRNASPG | 4.05
81 | MSKVLMAFIICLSLILSVLAAPPSGAKAESV | 2.82
82 | MSKWLIIAVSLAIAIVLFMYTKGEAKAAGM | 7.49
83 | MSKWMAGLFLAAAVLLCLMVPQQIQGASS | 4.5
84 | MSKWMITIAMLILAGIALFVFISPLKSHKT | 5.71
85 | MSLITFSLIITSAIIIAIIAAVIVIAALITFNVRNASPG | 7.04
86 | MSLMIVFMTLPLLIVCLAFSSFSASARAASE | 4.54
87 | MSLNKRVSMFLVALTMCGGLFVTPAKAVKT | 2.92
88 | MSLWMSKTLVVLFTIVTFGLVSPPAALMADKP | 2.43
89 | MSLYTVIASILLSFLSVLSGGHHESKAFPV | 5.37
90 | MSMIGLLFMLCLAALFTIGFPAQQADAAEA | 2
91 | MSMMLRRNFKRFIAAFLVLALMISLVPADVLAKST | 1.81
92 | MSMMSKLSLGVASAALGLALVGGGTWAAFN | 5.67
93 | MSMVMLATALFLGLTPAGANAADL | 5.37
94 | MSMWMITIAMLILAGIALFVFISPLKSHKT | 7.42
95 | MSNLCVMMLLFSAIASFPVSAQAKDQ | 3.93
96 | MSNMSCMLVVSVTLFFSFLTIGPLAHAQNS | 1.7
97 | MSPVFPLILSAVLFLSCFFGARQTEASASKR | 2.21
98 | MSRIRIPMTLALGAALTIAPLSFASAEEN | 3.2
99 | MSRITINIITMFIAAAVISLTGTAEAAEK | 2.45
100 | MSSCGGILIVCSLAAILLLIPSVSFAADS | 4.26
101 | MSSGIIVAGLAVSAVVGSSMAAAPAEAKTI | 6.57
102 | MSSGTVIASILLSFLSVLSGGHHESKAFPV | 6.28
103 | MSSKAWFLPLVCVLLISGWLAPAASASAQTT | 1.72
104 | MSSMTCKLVVSVTLFFSFLTIGPLAHAQNS | 1.57

Row | Sequence | AmyQ secretion efficiency
105 | MSSSVKIAGVLTVAAAAMTAKMYATAKGN | 4.6
106 | MSSTITFVLTMCFLGLILFVPTALADNS | 2.16
107 | MSSYIKVLTMCFLGLILFVPTALADNS | 1.7
108 | MSTFLIGAGVAAVILSGWFIADHQTHSQEM | 6.2
109 | MSTGILAAGLTASAIVGTTLVVTPAEAATI | 4.73
110 | MSTGTILVIASILLSFLSVLSGGHHESKAFPV | 6.64
111 | MSTGTSGSLISSLIVLSTVVISSLLFPGAAGASSK | 2.34
112 | MSTIGLLFMLCLAALFTIGFPAQQADAAEA | 2.8
113 | MSTIWIGMLAAAVLLLMVPKVSLADAA | 6.21
114 | MSTKQVMLALTAAAGLGLTALHSAPAAKAAPL | 2.43
115 | MSTLVLCVSILAVILSGVALTQLS | 6.38
116 | MSTMIVRMTLPLLIVCLAFSSFSASARAASE | 2.3
117 | MSTNLLSSLAISALSLGLLVSAPTASFAAES | 3.94
118 | MSTSTSSSLISSTVLSTVVISSLLFPGAAGASSK | 2.7
119 | MSTTIIITATTAVVLGSTLFAGAASAQSI | 2.61
120 | MSVCQKSIVRFLVSLIIGTFVISVPFMANAQSD | 1.68
121 | MSVMTTMLLSTAAGLLLSLTATSVSAHYV | 4.5
122 | MTFTKVVGFLSVLGLAAVFPLTAQAEKA | 3.02
123 | MTGGSAVLLSLIMLIAGFLISFSFQM | 7.63
124 | MTGGVILAAFILVGSTLGAFSFSSDASAKHV | 3.83
125 | MTGLKMLSMLTVMIASLFIFSSQALAVQY | 1.83
126 | MTGLWRSLALCGLALTLAPCAQAAEP | 2.01
127 | MTGMLGSMLLITAGILVFFAVVVKDVFAAGL | 4.32
128 | MTGSLLSSLAISALSLGLLVSAPTASFAAES | 5.96
